The target of assay [1] is T1, G9a and GLP (Homo sapiens, UniProt Q96KQ7+Q9H9B1).
T1 sequence (Q96KQ7 2-1210 limits assumed): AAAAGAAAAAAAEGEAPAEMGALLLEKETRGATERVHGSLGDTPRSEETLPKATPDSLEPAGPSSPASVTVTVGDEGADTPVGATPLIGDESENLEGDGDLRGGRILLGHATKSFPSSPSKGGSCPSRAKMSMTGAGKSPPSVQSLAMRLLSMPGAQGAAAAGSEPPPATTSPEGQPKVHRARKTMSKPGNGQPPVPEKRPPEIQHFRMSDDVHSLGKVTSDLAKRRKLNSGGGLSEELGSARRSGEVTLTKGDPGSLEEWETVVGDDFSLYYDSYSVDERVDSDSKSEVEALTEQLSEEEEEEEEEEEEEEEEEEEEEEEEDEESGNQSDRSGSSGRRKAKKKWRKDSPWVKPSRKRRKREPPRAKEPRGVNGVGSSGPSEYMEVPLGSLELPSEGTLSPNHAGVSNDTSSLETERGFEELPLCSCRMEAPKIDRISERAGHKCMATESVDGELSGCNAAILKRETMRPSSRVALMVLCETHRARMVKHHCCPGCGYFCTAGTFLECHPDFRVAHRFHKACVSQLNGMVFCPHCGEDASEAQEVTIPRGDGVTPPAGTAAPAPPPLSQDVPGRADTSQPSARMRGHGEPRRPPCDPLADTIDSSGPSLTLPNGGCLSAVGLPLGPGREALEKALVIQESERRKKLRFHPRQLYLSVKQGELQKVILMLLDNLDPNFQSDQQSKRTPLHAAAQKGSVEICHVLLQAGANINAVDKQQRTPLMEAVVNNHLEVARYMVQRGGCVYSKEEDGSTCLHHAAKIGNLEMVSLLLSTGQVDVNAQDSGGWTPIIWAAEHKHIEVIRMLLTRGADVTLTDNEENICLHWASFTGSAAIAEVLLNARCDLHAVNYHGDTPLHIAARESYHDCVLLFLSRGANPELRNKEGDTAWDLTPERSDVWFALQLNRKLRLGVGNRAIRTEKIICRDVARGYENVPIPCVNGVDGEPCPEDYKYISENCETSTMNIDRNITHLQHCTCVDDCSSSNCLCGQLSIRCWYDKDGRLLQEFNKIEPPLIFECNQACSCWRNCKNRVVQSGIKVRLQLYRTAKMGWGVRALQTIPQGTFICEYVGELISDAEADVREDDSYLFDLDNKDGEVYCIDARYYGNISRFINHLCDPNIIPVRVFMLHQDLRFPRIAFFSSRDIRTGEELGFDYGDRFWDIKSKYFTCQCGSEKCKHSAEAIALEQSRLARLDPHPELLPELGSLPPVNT
T1 sequence (Q9H9B1 2-1298 limits assumed): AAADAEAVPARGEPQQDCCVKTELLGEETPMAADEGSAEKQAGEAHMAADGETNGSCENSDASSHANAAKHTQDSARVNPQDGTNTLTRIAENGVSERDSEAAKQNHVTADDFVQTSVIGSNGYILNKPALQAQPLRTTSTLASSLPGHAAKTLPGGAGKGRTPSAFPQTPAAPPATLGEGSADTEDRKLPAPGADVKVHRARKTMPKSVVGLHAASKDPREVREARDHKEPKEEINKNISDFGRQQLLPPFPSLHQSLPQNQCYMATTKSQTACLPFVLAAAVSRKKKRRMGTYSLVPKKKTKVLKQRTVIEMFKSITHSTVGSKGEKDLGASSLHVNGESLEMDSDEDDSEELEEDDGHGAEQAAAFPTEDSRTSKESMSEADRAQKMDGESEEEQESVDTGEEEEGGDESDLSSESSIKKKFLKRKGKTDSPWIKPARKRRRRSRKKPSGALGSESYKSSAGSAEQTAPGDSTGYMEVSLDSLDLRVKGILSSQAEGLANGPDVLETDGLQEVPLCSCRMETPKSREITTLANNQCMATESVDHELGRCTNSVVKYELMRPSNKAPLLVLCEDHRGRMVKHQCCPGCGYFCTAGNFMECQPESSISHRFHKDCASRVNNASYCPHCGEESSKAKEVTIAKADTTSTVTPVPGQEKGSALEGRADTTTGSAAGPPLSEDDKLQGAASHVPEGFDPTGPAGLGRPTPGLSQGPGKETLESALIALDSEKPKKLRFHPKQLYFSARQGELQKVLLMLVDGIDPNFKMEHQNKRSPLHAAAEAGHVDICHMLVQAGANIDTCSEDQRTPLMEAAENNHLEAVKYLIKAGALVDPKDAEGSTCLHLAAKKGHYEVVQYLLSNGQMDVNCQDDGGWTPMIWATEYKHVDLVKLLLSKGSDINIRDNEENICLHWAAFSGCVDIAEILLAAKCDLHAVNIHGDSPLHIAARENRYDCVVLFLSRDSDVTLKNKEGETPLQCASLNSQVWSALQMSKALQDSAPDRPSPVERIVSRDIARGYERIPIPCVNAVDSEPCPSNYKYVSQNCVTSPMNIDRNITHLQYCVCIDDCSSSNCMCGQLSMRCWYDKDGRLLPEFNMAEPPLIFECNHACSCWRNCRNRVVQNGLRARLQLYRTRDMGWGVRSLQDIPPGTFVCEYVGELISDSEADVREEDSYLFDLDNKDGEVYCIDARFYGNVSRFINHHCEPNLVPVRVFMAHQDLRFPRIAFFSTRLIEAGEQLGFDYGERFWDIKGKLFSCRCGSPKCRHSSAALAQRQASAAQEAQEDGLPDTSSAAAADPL
Description: Triple SILAC pull-down after UNC0638 treatment of 293T cells, DMSO/UNC0638 ratio of protein captured by 3×MBT.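 As to all read-outs here: mass spectrometry (Q-Exactive) SILAC quantitation, DMSO/UNC0638 ratio computed after subtracting 3×MBTD355N mutant pull-down background, only proteins with at least twofold 3×MBT over mutant signal considered.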 The class given is cell-based. Also noted: endogenous in cells; host or cells: HEK 293T. The note with it: for Relative to UNC0638 UNC Heavy / Relative to UNC0638 UNC Light: SILAC ratio DMSO/UNC0638 of protein pulled down with 3xMBT; for Relative to UNC0638 UNC Heavy: UNC0638 in heavy SILAC media; for Relative to UNC0638 UNC Light: UNC0638 in light SILAC media; for Relative to UNC0638 Average: average of UNC Light and UNC Heavy experiments.

For assay [2], the system named is 3×MBT domain of L3MBTL1. As to the kind of experiment: Triple SILAC pull-down, 3xMBT/3xMBTD355N ratio (cytoplasmic, nuclear and chromatin fractions of 293T cells).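 As to all read-outs here: proteins quantified with MaxQuant, requiring at least two unique peptides and quantification in both label directions, normalized to the mean of proteins from a digested loading control.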 The class given is binding, human. The following applies: SILAC ratio, pull-down 3xMBT vs 3xMBTD355N; for 3xMBT/D355N UNC Heavy: experiment with UNC0638 in heavy SILAC media; for 3xMBT/D355N UNC Light: experiment with UNC0638 in light SILAC media.
Description: For stable isotope labeling by amino acids in cell culture (SILAC) experiments HEK 293T cells were grown for at least six doublings in DMEM for SILAC supplemented with 10% dialyzed fetal bovine serum (FBS), 230 mg/L L-proline and either 100 mg/L each of L-lysine and L-arginine (“light” medium), D4-L-lysine and ^13C6-L-arginine (“medium” media), or ^13C6^15N2-L-lysine and ^13C6^15N4-L-arginine (Thermo Scientific). Heavy methyl labeling used DMEM without L-Methionine or L-Cysteine supplemented with D3^13C-L-Methionine (Sigma), L-Cysteine (Sigma) and 10% dialyzed FBS.
For UNC0638 treatments cells were treated for 24 hours with UNC0638 at 2.5 μM or DMSO vehicle control. One experiment treated cells in light media with UNC0638, the other treated cells in heavy media. Both experiments included cells in medium media treated with DMSO for negative control pull-down with 3×MBTD355N.
UNC0638 treatment experiments used a Q-Exactive mass spectrometer (ThermoFisher Scientific). A 25 cm HPLC column with 3 μm Reliasil (Orochem) was used to separate peptides over a 4 hour gradient from 0 to 75% acetonitrile. Ions were generated using a custom nanospray source flowing at 250 nL/minute. Mass spectrometry settings were 70,000 MS1 resolution, data dependent selection of up to 20 precursor ions per cycle, dynamic exclusion of 30 seconds and isolation window of 2 m/z. The nuclear fraction from the experiment using UNC0638 on cells in heavy media was additionally analyzed by 2D HPLC-MS/MS as described earlier.
Peptides were identified and quantified using MaxQuant version 1.2.2.5 (Cox and Mann, supra) with the following changes to default settings: mono- and di-methylation of lysine, and oxidation of methionine, and N-terminal acetylation as variable modifications, disabled “I=L”, up to three modifications per peptide, one missed cleavage, maximum charge of 5. Protein and peptide FDR were set to 1%, and proteins were filtered post-hoc for at least two unique peptides. Proteins were excluded from an experiment if they were not quantified in both labeling directions. Because FDR is unreliable for small numbers of peptides the modification site FDR was set to 10% and all methylated peptides were manually verified. […] Quantitative protein data was normalized to the mean value among proteins identified by analyzing 50 ng of digested loading control.
For UNC0638 experiments the treated vs. untreated ratio was determined by subtracting the value from 3×MBTD355N prior to dividing values from the light and heavy channels. Only proteins showing a two-fold signal to background ratio (3×MBT/3×MBTD355N) were evaluated as potential G9a/GLP substrates.

B1: HNRNPA0 (protein, UniProt Q13151 1-305, looked up)
Heterogeneous nuclear …: MENSQLCKLFIGGLNVQTSESGLRGHFEAFGTLTDCVVVVNPQTKRSRCFGFVTYSNVEEADAAMAASPHAVDGNTVELKRAVSREDSARPGAHAKVKKLFVGGLKGDVAEGDLIEHFSQFGTVEKAEIIADKQSGKKRGFGFVYFQNHDAADKAAVVKFHPIQGHRVEVKKAVPKEDIYSGGGGGGSRSSRGGRGGRGRGGGRDQNGLSKGGGGGYNSYGGYGGGGGGGYNAYGGGGGGSSYGGSDYGNGFGGFGSYSQHQSSYGPMKSGGGGGGGGSSWGGRSNSGPYRGGYGGGGGYGGSSF
As to B1, in assay [1], the “Relative to UNC0638 UNC Heavy” value turned out to be 0.02 log base 2, the “Relative to UNC0638 UNC Light” value turned out to be 0.28 log base 2 and the “Relative to UNC0638 Average” value was 0.15 log base 2. Besides, in assay [2], the “3xMBT/D355N UNC Heavy” value is 2.94 log base 2 and the “3xMBT/D355N UNC Light” value was determined as 3.80 log base 2.

B2: KIN (protein, UniProt O60870 1-393, looked up)
DNA/RNA-binding protein KIN17: MGKSDFLTPKAIANRIKSKGLQKLRWYCQMCQKQCRDENGFKCHCMSESHQRQLLLASENPQQFMDYFSEEFRNDFLELLRRRFGTKRVHNNIVYNEYISHREHIHMNATQWETLTDFTKWLGREGLCKVDETPKGWYIQYIDRDPETIRRQLELEKKKKQDLDDEEKTAKFIEEQVRRGLEGKEQEVPTFTELSRENDEEKVTFNLSKGACSSSGATSSKSSTLGPSALKTIGSSASVKRKESSQSSTQSKEKKKKKSALDEIMEIEEEKKRTARTDYWLQPEIIVKIITKKLGEKYHKKKAIVKEVIDKYTAVVKMIDSGDKLKLDQTHLETVIPAPGKRILVLNGGYRGNEGTLESINEKTFSATIVIETGPLKGRRVEGIQYEDISKLA
In the case of B2, in assay [1], the “Relative to UNC0638 UNC Heavy” value is 0.35 log base 2, the “Relative to UNC0638 UNC Light” value is −0.04 log base 2 and the “Relative to UNC0638 Average” value is given as 0.15 log base 2. Moreover, in assay [2], the “3xMBT/D355N UNC Heavy” value came out at 2.85 log base 2 and the “3xMBT/D355N UNC Light” value came out at 2.11 log base 2.

B3: EEF1D (protein, UniProt P29692 2-281, looked up)
Elongation factor 1-delta: ATNFLAHEKIWFDKFKYDDAERRFYEQMNGPVAGASRQENGASVILRDIARARENIQKSLAGSSGPGASSGTSGDHGELVVRIASLEVENQSLRGVVQELQQAISKLEARLNVLEKSSPGHRATAPQTQHVSPMRQVEPPAKKPATPAEDDEDDDIDLFGSDNEEEDKEAAQLREERLRQYAEKKAKKPALVAKSSILLDVKPWDDETDMAQLEACVRSIQLDGLVWGASKLVPVGYGIRKLQIQCVVEDDKVGTDLLEEEITKFEEHVQSVDIAAFNKI
As for B3, in assay [1], the “Relative to UNC0638 UNC Heavy” value amounted to 0.11 log base 2, the “Relative to UNC0638 UNC Light” value amounted to 0.20 log base 2 and the “Relative to UNC0638 Average” value turned out to be 0.15 log base 2. In addition, in assay [2], the “3xMBT/D355N UNC Heavy” value is 3.34 log base 2 and the “3xMBT/D355N UNC Light” value came to 3.56 log base 2.

B4: HN1L (protein, UniProt Q9H910 1-190, looked up)
Jupiter microtubule …: MFQVPDSEGGRAGSRAMKPPGGESSNLFGSPEEATPSSRPNRMASNIFGPTEEPQNIPKRTNPPGGKGSGIFDESTPVQTRQHLNPPGGKTSDIFGSPVTATSRLAHPNKPKDHVFLCEGEEPKSDLKAARSIPAGAEPGEKGSARKAGPAKEQEPMPTVDSHEPRLGPRPRSHNKVLNPPGGKSSISFY
On to B4, for which, in assay [1], the “Relative to UNC0638 UNC Heavy” value is 0.17 log base 2, the “Relative to UNC0638 UNC Light” value came out at 1.22 log base 2 and the “Relative to UNC0638 Average” value came out at 0.70 log base 2. Further, the “Candidate G9a/GLP target” value in assay [1] (reduced association with 3xMBT after UNC0638 treatment) is listed as “✓”. Moreover, in assay [2], the “3xMBT/D355N UNC Heavy” value stood at 2.73 log base 2 and the “3xMBT/D355N UNC Light” value is recorded as 3.57 log base 2.

B5: SRP19 (protein, UniProt P09132 1-144, looked up)
Signal recognition particle …: MACAAARSPADQDRFICIYPAYLNNKKTIAEGRRIPISKAVENPTATEIQDVCSAVGLNVFLEKNKMYSREWNRDVQYRGRVRVQLKQEDGSLCLVQFPSRKSVMLYAAEMIPKLKTRTQKTGGADQSLQQGEGSKKGKGKKKK
On to B5, for which, in assay [1], the “Relative to UNC0638 UNC Heavy” value is on record as −0.08 log base 2, the “Relative to UNC0638 UNC Light” value stood at 0.38 log base 2 and the “Relative to UNC0638 Average” value is 0.15 log base 2. Further, in assay [2], the “3xMBT/D355N UNC Heavy” value came to 1.88 log base 2 and the “3xMBT/D355N UNC Light” value worked out at 2.14 log base 2.

B6: ZNF326 (protein, UniProt Q5BKZ1 1-582, looked up)
DBIRD complex subunit ZNF326: MDFEDDYTHSACRNTYQGFNGMDRDYGPGSYGGMDRDYGHGSYGGQRSMDSYLNQSYGMDNHSGGGGGSRFGPYESYDSRSSLGGRDLYRSGYGFNEPEQSRFGGSYGGRFESSYRNSLDSFGGRNQGGSSWEAPYSRSKLRPGFMEDRGRENYSSYSSFSSPHMKPAPVGSRGRGTPAYPESTFGSRNYDAFGGPSTGRGRGRGHMGDFGSIHRPGIVVDYQNKSTNVTVAAARGIKRKMMQPFNKPSGTFIKKPKLAKPMEKISLSKSPTKTDPKNEEEEKRRIEARREKQRRRREKNSEKYGDGYRMAFTCSFCKFRTFEEKDIELHLESSSHQETLDHIQKQTKFDKVVMEFLHECMVNKFKKTSIRKQQTNNQTEVVKIIEKDVMEGVTVDDHMMKVETVHCSACSVYIPALHSSVQQHLKSPDHIKGKQAYKEQIKRESVLTATSILNNPIVKARYERFVKGENPFEIQDHSQDQQIEGDEEDEEKIDEPIEEEEDEDEEEEAEEVGEVEEVEEVEEVREGGIEGEGNIQGVGEGGEVGVVGEVEGVGEVEEVEELEEETAKEEPADFPVEQPEEN
As for B6, in assay [1], the “Relative to UNC0638 UNC Heavy” value is on record as −0.02 log base 2, the “Relative to UNC0638 UNC Light” value was found to be 0.33 log base 2 and the “Relative to UNC0638 Average” value was found to be 0.15 log base 2. Also, in assay [2], the “3xMBT/D355N UNC Heavy” value was 3.01 log base 2 and the “3xMBT/D355N UNC Light” value was 6.59 log base 2.
